Experimental data from patent US20030124602.

Test system: Flag epitope tagged CTMPs (F.CTMPs; CTMP starting at the natural ATG of the cDNA)
Sequence (chain, as listed by the source): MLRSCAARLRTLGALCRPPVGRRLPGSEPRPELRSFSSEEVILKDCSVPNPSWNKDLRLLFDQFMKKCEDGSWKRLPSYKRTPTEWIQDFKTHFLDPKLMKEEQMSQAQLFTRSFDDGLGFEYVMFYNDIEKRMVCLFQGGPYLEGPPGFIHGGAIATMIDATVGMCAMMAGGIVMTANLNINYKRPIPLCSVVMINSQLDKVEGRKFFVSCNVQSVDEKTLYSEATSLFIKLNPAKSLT

HA epitope-tagged PKB alpha (HA-PKBα, pCMV5-HA-PKBα)
phosphorylation of PKB on Thr 308 and Ser 473, Western blot with phospho-specific antibodies: CTMP expression leads to a reduction of phosphorylation on both residues but most notably on the S473 site
